Test results reported in EP4722246A1, “TEM8-TARGETED ANTIBODY OR ANTIGEN-BINDING FRAGMENT THEREOF, AND USE THEREOF” (Inxmed (Nanjing) Co., Ltd., priority 2023, dated 2024).

target: hTEM8-his antigen (hTEM8 containing 6 His tags) (human) (UniProt Q9H6X2); assay: phage supernatant ELISA on hTEM8-his
Sequence (Q9H6X2 33-321 limits assumed): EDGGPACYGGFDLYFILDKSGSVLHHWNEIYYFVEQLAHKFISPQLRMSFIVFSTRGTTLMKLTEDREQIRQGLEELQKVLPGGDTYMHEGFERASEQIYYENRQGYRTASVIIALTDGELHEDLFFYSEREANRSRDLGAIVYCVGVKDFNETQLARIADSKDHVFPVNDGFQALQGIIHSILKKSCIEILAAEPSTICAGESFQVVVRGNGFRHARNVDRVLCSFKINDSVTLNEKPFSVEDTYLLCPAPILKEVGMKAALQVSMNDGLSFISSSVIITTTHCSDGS

Row | Binder | hTEM8-his ELISA (OD450)
1 | phage clone 7E3 (scFv on phage) (scFv, V domains shown) VH: QVQLVESGGGLVNPGGSLRLSCAVSGFTSSGFSINWVRQAPGKGLEWVSSISGIGDSIFYADSVKGRFTISRDNAKNLVFLQMNSVKAEDTAVYYCVRDKWGWGTYSLFDYWGQGTLVTVSS VL: QAVLTQPPSASGTPGQRVTISCSGSSSNIASNVVSWYQQLPGTAPKVLIYSNNRRPSGVPDRFSGSKSGASASLAISGLQSDDETHYYCAAWDDSLKGPVFGGGTQLTVL | 2.5
2 | phage clone 3B3 (scFv on phage) (scFv, V domains shown) VH: EVQLVQSGGGLVKPGGSLRLSCAASGFTFSSYSMNWVRQAPGKGLEWVSSISSSSSYIYYADSVKGRFTISRDNAKNSLYLQMNSLRAEDTAVYYCARVRPPYGMDVWGQGTLVTVSS VL: NIQMTQSPSSVSASVGDTVTISCRASQGISNWLGWYQQRPGEAPKLLIYAASHLQSGVPSRFSGSGSGTDFVLTITSLQPEDFATYYCQQSNSFPLAFGGGTKLEIK | 2.86
3 | phage clone 11B7 (scFv on phage) (scFv, V domains shown) VH: QVQLVQSGGGVVQPGRPLRLSCAASGFNLGSYAMSWVRQAPGKGLEWVSAISGSGGSTYYADSVKGRFTISRDNSKNTLYLQMNSLRAEDTAVYYCAKILGPGNLNYYYYYGMDVWGQGTTVTVSS VL: SSELTQDPAVSVALGQTVRITCQGDSLRNSYASWYQQKPGQAPVLVIYGNNNRPSGIPDRVSGSRSGNTASLTITGAQAEDEADYYCNSRDSSGNHVVFGGGTELTVL | 2.43
4 | phage clone 6A6 (scFv on phage) (scFv, V domains shown) VH: EVQLVESGGGVVQPGGSLRLSCAASGFTFDDYAMHWVRQAPGKGLEWVSLISGDGGSTYYADSVKGRFTISRDNSKNSLYLQMNSLKASDTAMYYCARPRWGRYSSSWPFDYWGQGTLVTVSS VL: QSALTQPASVSGSPGQSITISCTGTSSDVGTYNYVSWYQQHPGKAPKLMIYDVTDRPSGISNRFSGSKSGNTASLTISGLQAEDEGNYYCSSYTSNRSWVFGGGTKLTVL | 2.67
